# Results taken from publication doi:10.1101/2021.02.08.430344.
# Columns and labels:
# [1] = target: T1, SARS-CoV-2 nucleocapsid (N) protein (SARS-CoV-2, UniProt P0DTC9 2-419); assay: SV-AUC + ITC global fit; […], pH 7.4; ITC at 20 C; […] (137 mM NaCl); conditions: protein: commercial; tags: C-terminal His-tag; chain copies: 2; single strand
# [2] = target: T1, SARS-CoV-2 nucleocapsid (N) protein; assay: SV-AUC; […], pH 7.4; ITC at 20 C; […] (137 mM NaCl); conditions: protein: commercial; tags: C-terminal His-tag; chain copies: 2; single strand
Binder,Kd [2],further results
TTTTTT (ssDNA) [T6],,Kd [1]: 600 nM
TTTTTTTTTTTTTTTTTTTT (ssDNA) [T20],,binding result [2]: binds
GTGT (ssDNA) [(GT)2],> 10000 nM,
TTTTTTTTTT (ssDNA) [T10],< 100 nM,
